US20210253718A1, “FRIZZLED5 PROTEIN-BINDING AGENTS” (Modmab Therapeutics Corporation, priority 2016, published 2021)

Key:
Assay in all cases: Flow cytometry of anti-FZD5 Fab binding to CHO cells overexpressing Frizzled CRD
FZD1 CRD = target: T1, FZD1 CRD (Homo sapiens, UniProt Q9UP38)
T1 construct: D112-P238; GPI anchor signal (C); expressed in transfected cells; host or cells: CHO cells, lentiviral pLenti-puro
Description: (§1) Plasmids: pLCKO lentiviral vector used for knockout (TKO) library construction and expression of individual gRNAs was constructed as described previously (Hart et al., 2015). Briefly, single guide RNA (sgRNA) scaffold was amplified from px330 (Addgene 42230) and cloned into pLKO.TRC005 lentiviral vector (Broad Institute, Cambridge, Mass.) using AgeI/EcoRI restriction sites. BfuAI sites were added at the 5′ end of the sgRNA scaffold for cloning the TKO library or individual gRNA target sequences. Lenti Cas9-2A-BsdR vector used to generate Cas9 stable expression cell lines was constructed as described previously (Hart et al., 2015). Briefly, lentiCRISPR pXPR_001 (Addgene 49535) was modified through removal of the sgRNA scaffold region through NdeI/EcoRI digest and blunt ends generation using Large Klenow Fragment (NEB). 2A-puro was replaced with 2A-BsdR by PCR using the NheI/MluI sites. Each of the 10 human Frizzled cysteine rich domains (CRDs) were cloned into the lentiviral expression plasmid pLenti-puro in the following cassette: FZD_CRD-MYC-GPI.
(§2) Flow cytometry: Primary staining of cells was performed by treatment with 200 nM Frizzled profiler Fab. Alexa Fluor 488 AffiniPure F(ab′)2 was used as the secondary antibody (Jackson ImmunoResearch #109-546-097). c-Myc (9E10) IgG1 (primary antibody, Santa Cruz, lot #D0306) and Alexa Fluor 488 IgG (secondary antibody, Life technologies, lot #1458649) were used as controls. Dead cells were excluded by staining with Fixable Viability Dye eFluor 660 (eBioscience, catalogue number 65-0864). All reagents were used as per manufacturer's instructions. Flow cytometry was performed on a BD FACSCanto II flow cytometer (BD Biosciences), and data were analyzed with FlowJo software (FlowJo, LLC).
(§3) To confirm that the FZD5-WNT7B circuit is not driven simply by expression and rule out the possibility of a disconnect between RNA and protein levels for the Wnt receptors in HPAF-II cells, a panel of recombinant Fabs were generated, alternatively referred to herein as ‘Frizzled profiler’, that can detect and discriminate all but one of the ten Frizzled receptors. […] To characterize the binding specificity of these Fabs on cells, a panel of 10 CHO cell lines was generated, each expressing the CRD domain of a different myc-tagged Frizzled family member anchored at the plasma membrane through a GPI anchor (CHO-myc-FZDGPI). Despite the high sequence identity between Frizzled family members (FIG. 7A, FIG. 7B), selective Fabs were identified for FZD4, FZD5, FZD6 and FZD10 as assessed by immunofluorescence and flow cytometry (FIG. 7D and FIG. 8). […] The FZD8 CRD is most homologous to that of FZD5 (FIG. 7B). These Fabs can be used to discriminate expression of FZD1, FZD2, FZD4, FZD5, FZD6, FZD7, FZD8, FZD9 and FZD10 (FIG. 7D and FIG. 8). The ‘Frizzled profiler’ therefore consists of 10 different Fabs that can be used to discriminate expression of 9 different Frizzled family members. The Frizzled profiler was then used to confirm that HPAF-II cells express FZD1, FZD5, FZD6 and possibly FZD8 (FIG. 7E).
(§4) The binding of anti-FZD5 Fabs to cell surface-expressed Frizzled protein was further determined for each member of the Frizzled family via flow cytometry and immunofluorescence analysis of a panel of 10 CHO cell lines, each ectopically over-expressing the extracellular cysteine-rich domain (CRD) of a different Frizzled protein family member.

FZD7 CRD = target: T2, FZD7 CRD (Homo sapiens, UniProt O75084)
T2 construct: D45-S169; GPI anchor signal (C); expressed in transfected cells; host or cells: CHO cells, lentiviral pLenti-puro
Description: as §1, §2, §3, §4

FZD10 CRD = target: T3, FZD10 CRD (Homo sapiens, UniProt Q9ULW2)
T3 construct: 30-156; GPI anchor signal (C); expressed in transfected cells; host or cells: CHO cells, lentiviral pLenti-puro
T3 sequence (Q9ULW2 30-156): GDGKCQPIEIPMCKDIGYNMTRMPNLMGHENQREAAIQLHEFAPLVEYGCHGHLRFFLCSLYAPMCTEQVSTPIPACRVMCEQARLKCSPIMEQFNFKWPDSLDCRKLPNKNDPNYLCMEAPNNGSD
Description: as §1, §2, §3, §4

FZD2 CRD = target: T4, FZD2 CRD (Homo sapiens, UniProt Q14332)
T4 construct: D35-P161; GPI anchor signal (C); expressed in transfected cells; host or cells: CHO cells, lentiviral pLenti-puro
Description: as §1, §2, §3, §4

FZD4 CRD = target: T5, FZD4 CRD (Homo sapiens, UniProt Q9ULV1)
T5 construct: E42-V167; GPI anchor signal (C); expressed in transfected cells; host or cells: CHO cells, lentiviral pLenti-puro
T5 sequence (Q9ULV1 42-167): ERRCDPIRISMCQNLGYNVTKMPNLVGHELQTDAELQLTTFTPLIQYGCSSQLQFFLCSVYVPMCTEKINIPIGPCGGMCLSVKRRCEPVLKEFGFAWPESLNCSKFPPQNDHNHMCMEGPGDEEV
Description: as §1, §2, §3, §4

FZD6 CRD = target: T6, FZD6 CRD (Homo sapiens, UniProt O60353)
T6 construct: S20-P146; GPI anchor signal (C); expressed in transfected cells; host or cells: CHO cells, lentiviral pLenti-puro
T6 sequence (O60353 20-146): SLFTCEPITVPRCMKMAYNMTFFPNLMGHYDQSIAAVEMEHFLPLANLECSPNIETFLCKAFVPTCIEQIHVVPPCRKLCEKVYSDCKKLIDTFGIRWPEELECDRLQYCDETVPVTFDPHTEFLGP
Description: as §1, §2, §3, §4

FZD9 CRD = target: T7, FZD9 CRD (Homo sapiens, UniProt O00144)
T7 construct: G35-A161; GPI anchor signal (C); expressed in transfected cells; host or cells: CHO cells, lentiviral pLenti-puro
T7 sequence (O00144 35-161): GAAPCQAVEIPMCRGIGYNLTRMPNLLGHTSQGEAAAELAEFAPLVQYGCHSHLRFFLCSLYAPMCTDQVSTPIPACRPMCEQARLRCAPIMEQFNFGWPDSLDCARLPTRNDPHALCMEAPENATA
Description: as §1, §2, §3, §4

FZD5 CRD = target: T8, FZD5 CRD (Homo sapiens, UniProt Q13467)
T8 construct: K29-T156; GPI anchor signal (C); expressed in transfected cells; host or cells: CHO cells, lentiviral pLenti-puro
T8 sequence (Q13467 29-156): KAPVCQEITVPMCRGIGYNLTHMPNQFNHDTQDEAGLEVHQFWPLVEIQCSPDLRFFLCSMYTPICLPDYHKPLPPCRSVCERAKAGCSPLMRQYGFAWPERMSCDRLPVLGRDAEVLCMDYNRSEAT
Description: as §1, §2, §3, §4

Fab-2931: anti-FZD5 Fab with antibody variable region Fv-2931; CDR SEQ ID NOs: 35, 36, 70, 102, 146, 176 (CDR 1 QSVSSA; CDR 2 SAS; CDR 3 QQSSYSLIT; CDR 4 GFNLSYSS; CDR 5 ISPYSGST; CDR 6 ARGSYWYVGGGWWVSGHGGMDY)
Median fluorescence, Frizzled CRD overexpressed on CHO cells: FZD1 (FZD1 CRD): 10.27 | Median fluorescence, Frizzled CRD overexpressed on CHO cells: FZD7 (FZD7 CRD): 9.14 | Median fluorescence, Frizzled CRD overexpressed on CHO cells: FZD10 (FZD10 CRD): 2.59 | Median fluorescence, Frizzled CRD overexpressed on CHO cells: FZD2 (FZD2 CRD): 4.7 | Median fluorescence, Frizzled CRD overexpressed on CHO cells: FZD4 (FZD4 CRD): 3.65 | Median fluorescence, Frizzled CRD overexpressed on CHO cells: FZD6 (FZD6 CRD): 2.89 | Median fluorescence, Frizzled CRD overexpressed on CHO cells: FZD9 (FZD9 CRD): 2.76 | Median fluorescence, Frizzled CRD overexpressed on CHO cells: FZD5 (FZD5 CRD): 28.13
